{
  "source": "the domain aggregation screens of Martell et al. (2025)",
  "data": [
    {"assay": "soluble fraction after stress (log2 fold change); higher = more stays soluble; pooled small domains, quantitative proteomics", "conditions": "stress: 75 degC", "values": [
      {"sequence": "HMQDLTAQQQAILSFLKEHPKATRKEISENIPNITEDNIRYNLSQLQELGFVKSMGDSFIRIAI", "soluble fraction (log2)": 0.534},
      {"sequence": "HMQDNDLKNQIENVLRTYPDNVFTVEKIADVLRSHGSAAFKLIVQELASLERDKVAVVTEDGKFQLNPD", "soluble fraction (log2)": 0.261},
      {"sequence": "HMQDPTAVISRVLEERKHQPGALLPILHGIQDALGYVPREAVAQIAQALNLSRAEIHGVVSFYHHFR", "soluble fraction (log2)": -0.59},
      {"sequence": "HMQDPVWVDWLGENDWFQKDPKRRGLANGYSEILRAEQPELVGRPFLDEVTRRVQADFPELFG", "soluble fraction (log2)": -0.944},
      {"sequence": "HMQDTRSHARKMLAAIEALLEGRSGSDIQAYTIHNRSITKMTVPELVKWRSYYQQQVRSEDAAASLA", "soluble fraction (log2)": -0.61},
      {"sequence": "HMQDTYLYPVQHNGKVRLQVELPAKGLPEDLVRLALAHPKVVEWLNGRIPTKTIAVPGRIINMVLPNQ", "soluble fraction (log2)": -0.638},
      {"sequence": "HMQDVWEPFLAKGYVFADGMLTKLIHKRGDVYKTQEIGSDKIIYVIKDGDTFAHGKTVKAAMLDLAFKKS", "soluble fraction (log2)": -1.5},
      {"sequence": "HMQDYISAEEAKSAALSASQVDSAGAAFSAAELGEKNGIPYYEVAFTADGLEYRYAIDAQTGTVIESSSSG", "soluble fraction (log2)": 0.156},
      {"sequence": "HMQEDKVRKLTEMGFAEDQAREALRKHDWDETMALNSL", "soluble fraction (log2)": 0.262},
      {"sequence": "HMQEDSNISFVKIHVDADSGMAHKKLSKLSLPTGFLIVVIIRGEENIIPNGETEVLPGDLLVAAAREFEN", "soluble fraction (log2)": -1.31},
      {"sequence": "HMQEEELYPRLEEVINQHRGKGEDLIMVLHKAQNLFGYLPRRAQEMVAEGLNVSLNEVYGVITFYNFFST", "soluble fraction (log2)": 0.194},
      {"sequence": "HMQEERDISFIKIHLEPGHPWRGRALRELMPLKDLLIVMVVRGEDTIVPNGDTRLEEGDLLVLAAYPFEE", "soluble fraction (log2)": -0.834},
      {"sequence": "HMQEHAHLWRLMEDNRSFKADYIAFENGIVLLQNLSSGKISQYPITDFSIEDQLLILKRHELTAHINAN", "soluble fraction (log2)": -3.3},
      {"sequence": "HMQEIKPEPISDGRVWKEGMWATTPLGIEGQLLSDPDEKGMVQLGYGNMRININIQDLDPSR", "soluble fraction (log2)": -0.104},
      {"sequence": "HMQEISQEEALATVLKDLSLTEADLKDLQITREEDKYKILFSKGQTAYDVLVSAKDGQLLQSKQETI", "soluble fraction (log2)": -0.313},
      {"sequence": "HMQEKQIIDGREFYIHQVERGITLYSIAKQYNVKVADIQAENPFLEAGLQPGQTLKIPLDKVETVQEIK", "soluble fraction (log2)": -0.218},
      {"sequence": "HMQEPIAVPDFINKSAVDVLVNPVFTQNFKLVSEDVYDDKVPEGYIVGQSVKSDTLVQPGTEIVIYV", "soluble fraction (log2)": 0.224},
      {"sequence": "HMQEPNYQPLMQNIKSQDLEEVTRLLSLNDVKFKIDHRTGLLLVESSRVYEAKMKLAATGITD", "soluble fraction (log2)": -1.07},
      {"sequence": "HMQEPVHFTRRERQVLSLILSGQATAEIAKTLGIANATVTTYKKSLYSKSGTNSLSRLLIWAMVRR", "soluble fraction (log2)": -0.463},
      {"sequence": "HMQEPVYRPVFPGMTDADRQSAMEALKEGGFSPRLNRQTGQLEVDASGYHEAKIYLASQGIPAE", "soluble fraction (log2)": 0.0608},
      {"sequence": "HMQERNYIVRRGDTLWDLAKTYYGSGTKYTVIYDANRDNIEAEAKRRGKQSSNGGYWIYPGTELTI", "soluble fraction (log2)": -0.348},
      {"sequence": "HMQERTVVKGVVVQVSRDEAYVDIGYKQEIPVSKRDLAVPAPDDARDVVKVGDEIDVYIKSLGGDNGG", "soluble fraction (log2)": 0.109},
      {"sequence": "HMQESTPGEGYKWREDVLLRVMSQNGIDESLRDEFVRHAVNYDIDDNMYLKKAEIESAAEAWVLENS", "soluble fraction (log2)": 0.172},
      {"sequence": "HMQESVTVSAQALRRLLEKGDGDAALLYLALLRHHGTIQPRALAGELRWERPRIEAAEEALRQMGLIA", "soluble fraction (log2)": -0.48},
      {"sequence": "HMQETMTNDEVISLTKAGLSSSIIIGKIRSSATNFDLSTDSLIKLKQAGVSDETVAAMLEAKS", "soluble fraction (log2)": 0.0249},
      {"sequence": "HMQGAARGMLFAQAQRWMTKFRIDPQQADRITQAALDPAQTDAILREVRRGYGPSAERALRGIIRRARRA", "soluble fraction (log2)": -1.94},
      {"sequence": "HMQGEAMQETVKKLDAFLQDNSVSMSALARALGVSPSLISQFRSGSYKGDSQAIAAKINSYIDNHNKKSK", "soluble fraction (log2)": -0.0127},
      {"sequence": "HMQGEKDDLWREVLDNPDAWWDNRERKNAPGGNPRYPDFKHKDSQTPLWIESRDTPQWAIDALL", "soluble fraction (log2)": 0.259},
      {"sequence": "HMQGNGKVATELLKDIIASDNLYINAMRMLVMHYNSKGTNQVEMVKLLHNILDLVPDDEYANEILKSAKKA", "soluble fraction (log2)": -0.0872},
      {"sequence": "HMQGPDPYAVLGIDRHADERAIKRAYRKLISEHHPDRLGDLPEDMRKRAESRASEINAAYDRIKEARGF", "soluble fraction (log2)": 0.0522},
      {"sequence": "HMQGQVLQETARKARSQLDSEIPGFNDALYQNLIKSSENYGYKAEEVAQWVDPRAIKVLNDAYQFQQLKAG", "soluble fraction (log2)": -0.172},
      {"sequence": "HMQGTTTELLIQKSALYEELNDPEKALNAMFDAFEMDSLNVNVLHRIVSLLLDKEENEKAILYNQLIIDH", "soluble fraction (log2)": 0.0862},
      {"sequence": "HMQHQSGLKSGEFEAISQQLQALLKENPLSLQEIKDKMQVTENHLIKVVSYLVSEEIIRQENGYLK", "soluble fraction (log2)": -0.976},
      {"sequence": "HMQIAGLDDIDNRIIDLLLKNGRASYSEIGAAVGLSRTAAKNRIRALEASGIIRGYQAILDPQA", "soluble fraction (log2)": -0.708},
      {"sequence": "HMQIDDSVELSAIVEKLLAANPEQVEQLKNGKTKVLGYFVGLAMKETQGRANPQKVNELIQTHL", "soluble fraction (log2)": -0.519},
      {"sequence": "HMQIDRLFDIVYTLLRKKSATAAELAERFGVSKRTILRDIETLSVAGIPILTSPGKGGGVSISSSF", "soluble fraction (log2)": -0.892},
      {"sequence": "HMQIIETTVGRVLFNEKVPEAAGYINEVLTKKSLRDIIHGILKKTSVPETAAFLDEIKSLGYNFAF", "soluble fraction (log2)": 0.0925},
      {"sequence": "HMQIIEVPYSEFLKKLESGQISEVSRDSYQIVFTDRSQPPIIYKTGLMEDPGLVDKMQEAGVTFTSP", "soluble fraction (log2)": 0.256},
      {"sequence": "HMQIKNVDYGTFLDMLDEKNVKEVEIEDEQIVFTDNADPTGYYTTGRMEDPDLVDRLHNSGATFSAI", "soluble fraction (log2)": 0.134},
      {"sequence": "HMQILLASHAELAKGILSAVELIAGTQQNLKAYSAYTEAVDVHFKDQMLQDLNKMDPEDEVIL", "soluble fraction (log2)": 0.137},
      {"sequence": "HMQINLSEWVLAAREYAGPEMTQEKLAEHLGRTKANVSAMENGRSKPSFEQMMEIHRVTGYPLPYQ", "soluble fraction (log2)": -0.303},
      {"sequence": "HMQISDAGALLDAVRRVLAENPAQVEQFRAGKEKVMGFLVGQVMRATGGKANPQMLNDVLREELS", "soluble fraction (log2)": -0.196},
      {"sequence": "HMQISDEGELSGIVRKIIDANPQSVADYKAGKKKAIGFLVGQIMIETKGRANPASVNELLIKKLE", "soluble fraction (log2)": -0.434},
      {"sequence": "HMQISDNTILEDAVSRIIDENPKSVSDYFQGKEAVVGFFIGQIMRETKGTANPKIAREIVISHLEAI", "soluble fraction (log2)": -0.576},
      {"sequence": "HMQISGIHLYERRITKDDEWAERKLSEISLAGSLVILILRNEHVVIPNGETVLKENDLLYISD", "soluble fraction (log2)": -3.66},
      {"sequence": "HMQISGSEELEKIVQTVLEKNTDVVEEYKSGKTKVFAFLMGQVMKESRGKANPRLAKDILEKFLA", "soluble fraction (log2)": -0.429},
      {"sequence": "HMQITAPVQKIDGVEYYMHKVEQGQTLYSISKLYNVGVKEIQKANQLGTEGIQLGQVLKVRKGG", "soluble fraction (log2)": -0.2},
      {"sequence": "HMQIYLTPEQFKIIDFMEQMGKITVKDVMDILNIPKRTAQLHLQKLKTLKMIAQTGKGPSSAYLL", "soluble fraction (log2)": -1.11},
      {"sequence": "HMQKDAYVPDIISKLKSSRMIVVEGTIYPLLTRLKNTGLLSYRWEESLQGPPRKYYSITEQG", "soluble fraction (log2)": 0.268},
      {"sequence": "HMQKDYKTRLQEYYAKVGKKVNYMDSSTGPDHDKKFQTQVFLDKEIIGVGEGKSKKSSQQEAAKQALEKI", "soluble fraction (log2)": 0.267},
      {"sequence": "HMQKFINQEHEKAYNLMLEKDYQQALKIFDDLIYLFPNEANLLSDRGVIFIHLNKKEAALQDFDQAVF", "soluble fraction (log2)": -1.97},
      {"sequence": "HMQKIEKVDYGTFLKMIENGEIDQVNLTEKKISFTTDKDAETVYETGRVEDPNIVDRLYQADVEFTQEI", "soluble fraction (log2)": 0.598},
      {"sequence": "HMQKIENYDQFVQAFKRLSGLDLKLYKENQMKRRINNFINNHGFKENYDQFFQAITGNKELYNAFFKHLTI", "soluble fraction (log2)": -0.527},
      {"sequence": "HMQKKYLAVKEYLLEQINSGAYQPDEPIPPEREMAAMLGVNRMTLRRAVEELMYEGLLIRKKGSGTFLTK", "soluble fraction (log2)": -2.03},
      {"sequence": "HMQKLSPKQRRGNIIELIKENPTITAKNISTIFNLNQRTIERDLAKLTEEGYIKYEGSSKDGKWVFL", "soluble fraction (log2)": -0.134},
      {"sequence": "HMQKNKSVLFKDIVIAFNQNPKKLFNYKQLAADLDIHSEAERMLISQLLNDLKDQNFLEEVERGKYKLKL", "soluble fraction (log2)": -0.766},
      {"sequence": "HMQKPIKPVKMHTVGPKENLSSIGRMYEVNGRVLANYNNIDYDKGLTIGQVLKIPPKGTTLEQVT", "soluble fraction (log2)": 0.853},
      {"sequence": "HMQKTIDWSQVDKEQYLSAMERSPVNDLEIKAILAKALTSDINNRELFMKGLDHSYYFEGYQLFKSE", "soluble fraction (log2)": -0.526},
      {"sequence": "HMQKTQVVEVAGKSYQLTKMDARTGSYVAFKVAGVLAPSGGKTAEMAAALMGMPRKDFDELQSLLLRTV", "soluble fraction (log2)": 0.025},
      {"sequence": "HMQKYSTIIGVIELRQSGIGYRTTKKRYNIGNSTVTLIMNRFHELGLSLEELKAMPPKKVEEAFYPPE", "soluble fraction (log2)": -3.22},
      {"sequence": "HMQLASILDDIPGIGKKRKENLLTHFGSFSKIQSADIDALAEVPGISRDLAETIHTYLKTHQ", "soluble fraction (log2)": -0.0246},
      {"sequence": "HMQLDLSDPSKNKLDSIVSLPIKSLKAVEANGEILFMSENGRFVLRGQLYDIWYKDTLDTSAQIQDAATRI", "soluble fraction (log2)": 0.331},
      {"sequence": "HMQLDLTSTLDHMYKQMRNDHPRALLMAVEKEMVLRALKETDGNQLRASDILGISRSTLRKRIEEFDINS", "soluble fraction (log2)": -1.24},
      {"sequence": "HMQLEPLITSVIPVNFAKAGEVATTIKGKEVGLVSDRGSITAESRTNVLIVKDIKKNVDDISAMVKRLD", "soluble fraction (log2)": -0.00331},
      {"sequence": "HMQLGEEAGDELVAIVRSVINDNDKALADYLAGKSSALKFLLGQVMRQTKGRADHALVQSLLEAELEAL", "soluble fraction (log2)": -0.0341},
      {"sequence": "HMQLHDTMKRVYEALDISEQKLAESLGLKLSTIINWQKNGISKIGINKLNQTFGLDMQWILTGQGEPFI", "soluble fraction (log2)": -0.0293},
      {"sequence": "HMQLLDIGSAVRIIREPYFGRLGTVVELPPELMEIESGTHARVLKAKLDDGTVAVVPRANVEIIVE", "soluble fraction (log2)": -0.785},
      {"sequence": "HMQLNNTDELEKIILKILENNPKQVDQFLAGKQKLLGFFVGQAMRATSGKANPKTVNDLLEKFLSK", "soluble fraction (log2)": 0.027},
      {"sequence": "HMQLPDLDEIRQMRKRLDLSQRELAALAGVSQSLIAKIEKGSIDPSYDNVRKIFNAFENILKKRALE", "soluble fraction (log2)": -0.119},
      {"sequence": "HMQLPIGDVKLSVEHLSSGTALQDISFEVHRGEIFGFLGLVGAGRSETAETIFGLREKTDGKISIDGTVL", "soluble fraction (log2)": -0.0579}
    ]}
  ]
}
